US20190209659, “STABLE LIQUID FIBRINOGEN” (LABORATOIRE FRANCAIS DU FRACTIONNEMENT ET DES …, published 2019)

Experiments:
[1] = target: T1, fibrinogen (transgenic, human) (Homo sapiens, UniProt P02671-2;P02675;P02679-2 P02671-2:20-644,P02675:31-491,P02679-2:27-437); assay: SPR; stated strong affinity, pH-dependent; conditions: tags: purified from transgenic cow milk, 97% purity; chain copies: 2
fibrinogen (plasma) [2] = target: T2, fibrinogen (plasma) (Homo sapiens, UniProt P02671-2;P02675;P02679-2 P02671-2:20-644,P02675:31-491,P02679-2:27-437); assay: SPR; stated strong affinity, pH-dependent; conditions: tags: human plasma purified, 95% or 99.9% purity; semi-purified and plasma used in chromatography; chain copies: 2
T2 sequence (P02671 other isoform, or with tags, fused parts or gaps, chain 1 of 3): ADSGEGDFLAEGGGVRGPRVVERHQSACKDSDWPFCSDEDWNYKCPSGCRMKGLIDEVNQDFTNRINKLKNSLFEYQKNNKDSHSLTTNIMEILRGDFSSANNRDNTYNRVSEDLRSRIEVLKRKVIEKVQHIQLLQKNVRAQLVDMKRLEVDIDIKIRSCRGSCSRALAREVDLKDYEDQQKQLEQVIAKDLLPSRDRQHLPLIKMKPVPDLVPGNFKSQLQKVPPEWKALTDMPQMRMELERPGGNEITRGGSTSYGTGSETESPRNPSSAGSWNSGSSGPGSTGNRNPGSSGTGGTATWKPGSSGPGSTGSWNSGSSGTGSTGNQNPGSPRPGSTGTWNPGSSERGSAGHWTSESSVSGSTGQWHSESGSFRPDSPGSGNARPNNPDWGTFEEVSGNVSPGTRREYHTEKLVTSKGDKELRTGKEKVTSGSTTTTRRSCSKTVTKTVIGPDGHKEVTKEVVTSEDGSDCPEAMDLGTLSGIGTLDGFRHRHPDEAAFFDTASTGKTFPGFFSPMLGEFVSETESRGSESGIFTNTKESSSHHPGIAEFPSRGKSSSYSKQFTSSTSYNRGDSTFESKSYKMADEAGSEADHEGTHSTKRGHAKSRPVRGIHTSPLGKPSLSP
T2 sequence (P02675 31-491, chain 2 of 3): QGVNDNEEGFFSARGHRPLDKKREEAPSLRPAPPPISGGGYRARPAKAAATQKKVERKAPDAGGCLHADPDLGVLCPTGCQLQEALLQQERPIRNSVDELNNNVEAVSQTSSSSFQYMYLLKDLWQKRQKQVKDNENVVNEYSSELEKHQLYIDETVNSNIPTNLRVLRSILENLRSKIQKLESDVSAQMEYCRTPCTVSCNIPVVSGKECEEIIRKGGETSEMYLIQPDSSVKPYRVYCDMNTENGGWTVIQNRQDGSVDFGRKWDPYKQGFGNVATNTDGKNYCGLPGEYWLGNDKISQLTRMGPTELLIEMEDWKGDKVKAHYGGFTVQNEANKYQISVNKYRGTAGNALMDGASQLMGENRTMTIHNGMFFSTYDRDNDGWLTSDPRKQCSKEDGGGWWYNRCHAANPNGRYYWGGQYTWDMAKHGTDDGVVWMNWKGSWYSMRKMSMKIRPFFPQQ
T2 sequence (P02679 other isoform, or with tags, fused parts or gaps, chain 3 of 3): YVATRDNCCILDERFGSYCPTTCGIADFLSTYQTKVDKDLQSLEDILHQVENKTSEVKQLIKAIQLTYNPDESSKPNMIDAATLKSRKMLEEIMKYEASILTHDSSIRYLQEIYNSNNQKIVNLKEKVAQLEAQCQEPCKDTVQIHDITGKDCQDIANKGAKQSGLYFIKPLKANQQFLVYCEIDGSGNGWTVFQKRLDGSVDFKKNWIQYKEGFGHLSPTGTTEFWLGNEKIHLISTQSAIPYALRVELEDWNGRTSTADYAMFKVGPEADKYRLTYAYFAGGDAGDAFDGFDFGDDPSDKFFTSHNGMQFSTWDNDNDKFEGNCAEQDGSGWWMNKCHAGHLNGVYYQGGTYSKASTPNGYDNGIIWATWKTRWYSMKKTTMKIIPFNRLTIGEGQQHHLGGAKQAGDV

fibrinogen (plasma) [3] = target: T2, fibrinogen (plasma); assay: competition; 2 uM variant with 0.4 uM fibrinogen over immobilised SEQ 66 (SPR); among highest affinity; conditions: tags: human plasma purified, 95% or 99.9% purity; semi-purified and plasma used in chromatography; chain copies: 2
Method: (§1) In order to compare the affinity of the designed variants with that of the parental aptamer, a concurrent test was conducted. Firstly, a 1 μM solution of the aptamer of SEQ ID NO 66 was prepared using binding buffer. The aptamer solution was heated to 90° C. for 5 min, incubated in ice for 5 min and balanced at the ambient temperature for 10 min. The preparation was injected into a sensor chip coated with streptavidin SA from Biacore T200 instrument (GE Healthcare) at a rate of 10 μl/min for 7 min. Then, mixtures containing a variant (2 μM) and the human plasma fibrinogen (0.4 μM) were injected on the aptamer immobility at a rate of 30 μl/min for 1 minute. The response obtained for the various fragment/fibrinogen mixtures was compared.

fibrinogen (plasma) [4] = target: T2, fibrinogen (plasma); assay: competition; significant inhibition of fibrinogen binding to immobilised SEQ 66 (SPR); conditions: tags: human plasma purified, 95% or 99.9% purity; semi-purified and plasma used in chromatography; chain copies: 2
Method: as §1

[5] = target: T1, fibrinogen (transgenic, human); assay: SPR; dose-dependent 125-1000 nM, pH 6.3; resists 0.5 M NaCl, eluted at pH 7.4; conditions: tags: purified from transgenic cow milk, 97% purity; chain copies: 2
Method: (§2) Each solution of transgenic fibrinogen was injected at pH 6.3 in such a way that a complex was formed in a dose-dependent manner as shown by the increase in the signals depending on the concentration of fibrinogen. […] The fibrinogen was then released from the complex by an elution buffer at pH 7.40. The solid support was then regenerated by injection of a solution of NaOH 50 mM. X-axis: time in s. Y-axis: SPR response in arbitrary unit.
(§3) The chosen aptamer was synthesised with biotin and a spacer of triethylene glycol at the end 5′ of the oligonucleotide. A solution 1 μM of the aptamer was prepared using the SELEX selection buffer. The aptamer solution was heated to 90° C. for 5 min, incubated in ice for 5 min and balanced at the ambient temperature for 10 min. The preparation was injected into a sensor chip coated with streptavidin SA from Biocore T200 instrument (GE Healthcare) at a debit of […] for 7 min. Then, various concentrations of the target were injected onto the immobilised aptamer at a rate of 30 μl/min for 1 minute. After a dissociation for 1-2 min, a step of washing was carried out via injection of a suitable wash buffer at a rate of 30 μl/min for 1 min. For the elution, a suitable elution buffer was injected at a rate of 30 μl/min for 1-2 min. […] During the experiment, the response signal was recorded in a sensorgram.

fibrinogen (plasma) [6] = target: T2, fibrinogen (plasma); assay: SPR; dose-dependent 125-1000 nM, pH 6.3, MOPS, NaCl 150 mM, MgCl2 5 mM; resists 0.5 M NaCl, eluted at pH 7.4; conditions: tags: human plasma purified, 95% or 99.9% purity; semi-purified and plasma used in chromatography; chain copies: 2
Method: as §2, with “human plasma” for “transgenic”
as §3

[7] = target: T1, fibrinogen (transgenic, human); assay: SPR; dose-dependent 125-1000 nM, pH 6.3; resists 1 M NaCl, eluted at pH 7.4 with 2 M MgCl2; conditions: tags: purified from transgenic cow milk, 97% purity; chain copies: 2
Method: as §2, with “7.40 and containing MgCl₂ 2 M.” for “7.40.”
as §3

fibrinogen (plasma) [8] = target: T2, fibrinogen (plasma); assay: as above; conditions: tags: human plasma purified, 95% or 99.9% purity; semi-purified and plasma used in chromatography; chain copies: 2
Method: as §2, with “human plasma” for “transgenic”, “7.40 and containing MgCl₂ 2 M.” for “7.40.”
as §3

[9] = target: T1, fibrinogen (transgenic, human); assay: SPR; stated strong affinity for plasma and transgenic fibrinogen, pH 6.3; conditions: tags: purified from transgenic cow milk, 97% purity; chain copies: 2
fibrinogen (plasma) [10] = target: T2, fibrinogen (plasma); assay: SPR; 250 nM fibrinogen, pH 6.3; resists 0.5 M NaCl; conditions: tags: human plasma purified, 95% or 99.9% purity; semi-purified and plasma used in chromatography; chain copies: 2

T1 sequence (P02671 other isoform, or with tags, fused parts or gaps, chain 1 of 3): as the sequence (P02671 other isoform, or with tags, fused parts or gaps, chain 1 of 3) above
T1 sequence (P02675 31-491, chain 2 of 3): as the sequence (P02675 31-491, chain 2 of 3) above
T1 sequence (P02679 other isoform, or with tags, fused parts or gaps, chain 3 of 3): as the sequence (P02679 other isoform, or with tags, fused parts or gaps, chain 3 of 3) above

B1: SEQ ID NO 1 aptamer (ssDNA)
DNA: GGGTCAATGCCAGGTCTCGGACCTGGAATCCGCCACCCGCATTAGAACCAGGGTTGACATCGGCTCGCAAGCAGTC
modifications: 5' biotin-triethylene glycol
- binding result [1]: binds
- binding result (fibrinogen (plasma) [2]): binds

B2: SEQ ID NO 83 variant (ssDNA)
DNA: GTCAATGCCAGGTCTCCTGGAATCCGCCACCCGCATTAGAACCAGGGTTGAC
- binding result (fibrinogen (plasma) [3]): binds

B3: SEQ ID NO 84 variant (ssDNA)
DNA: GTCAATGCCAGGTCACCTGGAATCCGCCACCCGCATTAGAACCAGGGTTGAC
- binding result (fibrinogen (plasma) [3]): binds

B4: SEQ ID NO 93 variant (ssDNA)
DNA: GTCAATGCCAGCGGACCTGGAATCCGCCACCCGCATTAGAACCAGGGTTGAC
- binding result (fibrinogen (plasma) [4]): binds

B5: SEQ ID NO 86 variant (ssDNA)
DNA: GTCAATGCCAGGTCGCCTGGAATCCGCCACCCGCATTAGAACCAGGGTTGAC
- binding result (fibrinogen (plasma) [3]): binds

B6: SEQ ID NO 80 variant (deletion 1/2) (ssDNA)
DNA: GTCAATGCCAGGTCTCGGACCTGGAATCCGCCACCCGCATTAGAACCAGGGTTGAC
- binding result (fibrinogen (plasma) [3]): binds

B7: SEQ ID NO 87 variant (ssDNA)
DNA: GTCAATGCCAGGTCTCACCTGGAATCCGCCACCCGCATTAGAACCAGGGTTGAC
- binding result (fibrinogen (plasma) [3]): binds

B8: SEQ ID NO 88 variant (ssDNA)
DNA: GTCAATGCCAGGTCGGACCTGGAATCCGCCACCCGCATTAGAACCAGGGTTGAC
- binding result (fibrinogen (plasma) [4]): binds

B9: SEQ ID NO 66 (A5-1.9 base sequence) (ssDNA)
DNA: GGGTCAATGCCAGGTCTCGGACCTGGAATCCGCCACCCGCATTAGAACCAGGGTTGAC
modifications: 5' biotin-triethylene glycol (SPR); 5' amino-C6 spacer and 3' inverted dT (affinity support)
- binding result [5]: binds
- binding result (fibrinogen (plasma) [6]): binds

B10: SEQ ID NO 58 aptamer (ssDNA)
DNA: GGGTCAATGCCAGGTCTCAACTTTCGCGTGTGGTTGGTAGGGCTAGGTGTATACGCATATCGGCTCGCAAGCAGTC
modifications: 5' biotin-triethylene glycol
- binding result [1]: binds
- binding result (fibrinogen (plasma) [2]): binds

B11: SEQ ID NO 67 (A5-2.9 base sequence) (ssDNA)
DNA: CGCGTGTGGTTGGTAGGGCTAGGTGTATACGCAT
modifications: 5' biotin-triethylene glycol (SPR); 5' amino-C6 spacer and 3' inverted dT (affinity support)
- binding result [7]: binds
- binding result (fibrinogen (plasma) [8]): binds

B12: SEQ ID NO 60 aptamer (ssDNA)
DNA: GGGTCAATGCCAGGTCTCTGCGTACTTATCTCGATGTGGTTGGTAGGGATAGGTGTATATCGGCTCGCAAGCAGTC
modifications: 5' biotin-triethylene glycol
- binding result [9]: binds
- binding result (fibrinogen (plasma) [10]): binds

B13: SEQ ID NO 65 aptamer (ssDNA)
DNA: GGGTCAATGCCAGGTCTCGAGCCGGTGTTGTGTTATGTTGGTAGGGAAGGTGTATAATATCGGCTCGCAAGCAGTC
modifications: 5' biotin-triethylene glycol
- binding result [9]: binds
- binding result (fibrinogen (plasma) [10]): binds

B14: SEQ ID NO 89 variant (ssDNA)
DNA: GTCAATGCCAGGTCTCGGACCTGGAATCCGCCACCCGCATTAGAACCAGGGTTGA
- binding result (fibrinogen (plasma) [4]): binds

Binder: GTCAATGCCAGTCGCTGGAATCCGCCACCCGCATTAGAACCAGGGTTGAC (ssDNA) [SEQ ID NO 82 variant]
- binding result (fibrinogen (plasma) [3]): binds

B15: SEQ ID NO 81 variant (ssDNA)
DNA: GTCAATGCCAGGTCTCCCTGGAATCCGCCACCCGCATTAGAACCAGGGTTGAC
- binding result (fibrinogen (plasma) [3]): binds

B16: SEQ ID NO 85 variant (ssDNA)
DNA: GTCAATGCCAGGTCGACCTGGAATCCGCCACCCGCATTAGAACCAGGGTTGAC
- binding result (fibrinogen (plasma) [3]): binds

B17: SEQ ID NO 91 variant (ssDNA)
DNA: GTCAATGCCAGTCGGACCTGGAATCCGCCACCCGCATTAGAACCAGGGTTGAC
- binding result (fibrinogen (plasma) [4]): binds

B18: SEQ ID NO 90 variant (ssDNA)
DNA: GTCAATGCCAGGTCTCGGACCTGGAATCCGCCACCCGCATAGAACCAGGGTTGAC
- binding result (fibrinogen (plasma) [4]): binds

B19: SEQ ID NO 92 variant (ssDNA)
DNA: GTCAATGCCAGGTCTCGGACCTGGAATCCGCCACCCGCTTAGAACCAGGGTTGAC
- binding result (fibrinogen (plasma) [4]): binds
